These results are taken from IntAct's records for PubMed 29656893.

B1: Shieldin complex subunit 3 (Homo sapiens), Q6ZNX1 (parent)
chain: MTTEVILHYRPCESDPTQLPKIAEKAIQDFPTRPLSRFIPWFPYDGSKLPLRPKRSPPVISEEAAEDVKQYLTISEHDAKSHSYDCTVDLLEFQPSLKKQHLTWSHTLKEQTNSGNLGKQSEKGKQHKRRSWSISLPSNNCTKNVSPLSKKLQDSLKALNLHSLYRARWTIEHTICNSQTLEDIWTKLNQIIRHNELPSCNATIQRHLGQIWVFCDIMYCEYVGSLLKGRLALTGKINLFVHKYGVIFSM

In this assay the parent is B1. The note with it: with md2l2_human MAD2L2, Q9UI95.
Chain of md2l2_human MAD2L2, Q9UI95 (Q9UI95 whole entry): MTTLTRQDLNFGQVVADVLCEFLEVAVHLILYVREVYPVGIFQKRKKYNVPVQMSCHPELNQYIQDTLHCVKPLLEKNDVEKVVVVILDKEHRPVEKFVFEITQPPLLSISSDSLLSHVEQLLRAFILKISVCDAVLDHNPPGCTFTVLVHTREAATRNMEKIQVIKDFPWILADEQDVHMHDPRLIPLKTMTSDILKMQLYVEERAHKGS
Regarding P53A;P58A, the “effect of a mutation on the interaction” value is “disrupting interaction strength”.
